Results: paper PMC12737678

Assays:
[1] = target: oxytocin (UniProt P01178); test: small-molecule microarray
[2] = target: SARS-CoV-2 papain-like protease (PLpro) (SARS-CoV-2)

Row | Substance | SNR (signal-to-noise ratio on the microarray) [1] | IC50 of inhibition of PLpro enzymatic activity (dose-response curve, Figure 5C) [2] [µM]
1 | SARS-CoV-2 papain-like protease (PLpro) (enzyme) | 6.52 | –
2 | oxytocin (from UniProt P01178 20-28) (peptide) | – | 4.92
3 | SARS-CoV-2 main protease (Mpro) (enzyme) | 5.53 | –
